Test results published in article PMC5996891, “Staphylococcus aureus Phenol-Soluble Modulins α1–α3 Act as Novel Toll-Like Receptor (TLR) 4 Antagonists to Inhibit HMGB1/TLR4/NF-κB Signaling Pathway” (Frontiers in Immunology, 2018).

B1: recombinant disulfide HMGB1 protein (natural protein)
chain: MGKGDPKKPRGKMSSYAFFVQTCREEHKKKHPDASVNFSEFSKKCSERWKTMSAKEKGKFEDMAKADKARYEREMKTYIPPKGETKKKFKDPNAPKRPPSAFFLFCSEYRPKIKGEHPGLSIGDVAKKLGEMWNNTAADDKQPYEKKAAKLKEKYEKDIAAYRAKGKPDAAKKGVVKAEKSKKKKEEEEDEEDEEDEEEEEDEEDEDEEEDDDDE
modifications: disulfide bond between cysteines 23 and 45; reduced thiol on cysteine 106
notes: high mobility group box-1 protein; also called high mobility group box-1 protein; source: recombinant, provided by Kevin Tracey (The Feinstein Institute for Medical Research)

What was measured:
[1] = biological target: recombinant human TLR4 protein (ectodomain, Glu24-Lys631) (human) (UniProt O00206); assay: SPR; Biacore T200; TLR4 immobilised on a CM5 chip by amine coupling; HMGB1 or synthetic PSMs in 10 mM acetate buffer (pH 5.2) run over at gradient concentrations; 25°C, 30 µL/min; apparent KD
Chain of recombinant human TLR4 protein (ectodomain, Glu24-Lys631) (human) (O00206 24-631): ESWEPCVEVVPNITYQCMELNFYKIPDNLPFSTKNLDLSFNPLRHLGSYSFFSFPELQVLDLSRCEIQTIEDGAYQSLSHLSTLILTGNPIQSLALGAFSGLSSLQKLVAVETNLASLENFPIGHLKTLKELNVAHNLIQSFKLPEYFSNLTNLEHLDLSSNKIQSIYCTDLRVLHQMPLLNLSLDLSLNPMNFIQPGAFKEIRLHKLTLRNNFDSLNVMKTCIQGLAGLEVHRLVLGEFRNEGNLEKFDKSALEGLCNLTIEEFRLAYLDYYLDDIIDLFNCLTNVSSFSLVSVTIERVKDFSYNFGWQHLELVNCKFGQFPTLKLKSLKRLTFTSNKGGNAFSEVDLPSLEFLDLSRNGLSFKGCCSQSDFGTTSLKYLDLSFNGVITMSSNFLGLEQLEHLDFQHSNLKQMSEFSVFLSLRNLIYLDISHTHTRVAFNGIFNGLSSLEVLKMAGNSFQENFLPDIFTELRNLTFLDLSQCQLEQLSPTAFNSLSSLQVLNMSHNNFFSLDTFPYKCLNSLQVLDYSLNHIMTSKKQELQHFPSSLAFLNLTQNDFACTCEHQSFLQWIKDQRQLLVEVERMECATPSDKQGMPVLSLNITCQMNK

[2] = biological target: T1, recombinant human TLR4 protein (ectodomain, Glu24-Lys631) (human, UniProt O00206 24-631); assay: as above; conditions: both partners purified
T1 construct: human toll-like receptor 4, Glu24-Lys631, the ectodomain with no transmembrane domain; followed by a C-terminal Ser and 10-His tag; also called hTLR4; toll-like receptor 4; source: bought: R&D Systems (Catalog Number 1478-TR); not shown: His10 (after a Ser), C-terminal, kept
T1 sequence (O00206 24-631): as above

Row | Molecule | Kd [1] | Kd [2]
1 | Staphylococcus aureus phenol-soluble modulin α2 (peptide) | 3.24 µM | –
2 | Staphylococcus aureus phenol-soluble modulin α3 (peptide) | 3 µM | –
3 | Staphylococcus aureus phenol-soluble modulin β1 (peptide) | 3.79 µM | –
4 | Staphylococcus aureus phenol-soluble modulin β2 (peptide) | 7.78 µM | –
5 | Staphylococcus aureus phenol-soluble modulin α1 (peptide) | 3.81 µM | –
6 | B1 | – | 9.2 µM
